For two substances, MFI and MFI (residual ligand binding) results are on record in patent publication US20220073608A1.

In experiment [1] the target is T1, human SEMA4D, full length, on CHO-K1 cells (CHO-K1 hSEMA4D) (human) (UniProt Q92854).
T1 sequence (looked up): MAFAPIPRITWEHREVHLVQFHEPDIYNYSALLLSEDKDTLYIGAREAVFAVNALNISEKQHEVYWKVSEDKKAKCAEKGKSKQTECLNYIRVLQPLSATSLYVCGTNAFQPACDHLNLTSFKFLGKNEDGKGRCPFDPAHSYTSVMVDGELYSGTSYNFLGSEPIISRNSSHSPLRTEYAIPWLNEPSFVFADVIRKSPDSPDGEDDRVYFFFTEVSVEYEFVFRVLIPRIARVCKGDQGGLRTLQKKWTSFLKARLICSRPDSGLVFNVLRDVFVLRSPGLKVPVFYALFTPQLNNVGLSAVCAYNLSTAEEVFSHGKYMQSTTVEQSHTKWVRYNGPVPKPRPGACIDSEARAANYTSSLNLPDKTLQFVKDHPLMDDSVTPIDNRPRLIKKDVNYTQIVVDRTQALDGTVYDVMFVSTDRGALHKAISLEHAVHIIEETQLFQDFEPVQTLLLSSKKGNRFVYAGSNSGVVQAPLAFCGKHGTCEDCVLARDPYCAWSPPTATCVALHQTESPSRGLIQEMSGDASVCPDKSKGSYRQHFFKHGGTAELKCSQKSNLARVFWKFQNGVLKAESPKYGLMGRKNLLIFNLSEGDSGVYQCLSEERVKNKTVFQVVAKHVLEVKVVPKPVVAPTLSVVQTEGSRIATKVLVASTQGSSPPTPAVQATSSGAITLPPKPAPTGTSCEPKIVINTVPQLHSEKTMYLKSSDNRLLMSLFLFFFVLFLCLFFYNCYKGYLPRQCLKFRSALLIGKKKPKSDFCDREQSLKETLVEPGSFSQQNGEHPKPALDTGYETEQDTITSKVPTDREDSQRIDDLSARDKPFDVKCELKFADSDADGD
Kind of experiment: FACS, CHO-K1 hSEMA4D cells; Ab 0.107 nM.

Experiment [2] addresses monkey SEMA4D, full length, on CHO-K1 cells (CHO-K1 cSEMA4D) (monkey). Put plainly: FACS, CHO-K1 cSEMA4D cells; Ab 0.000853 nM.
Experiment [3] concerns the target T2, biotinylated hSEMA4D ECD-His (human) (UniProt Q92854).
T2 sequence (chain, biotinylated with Biotin-X-X-NHS at a molar ratio of 8,1; sites not stated): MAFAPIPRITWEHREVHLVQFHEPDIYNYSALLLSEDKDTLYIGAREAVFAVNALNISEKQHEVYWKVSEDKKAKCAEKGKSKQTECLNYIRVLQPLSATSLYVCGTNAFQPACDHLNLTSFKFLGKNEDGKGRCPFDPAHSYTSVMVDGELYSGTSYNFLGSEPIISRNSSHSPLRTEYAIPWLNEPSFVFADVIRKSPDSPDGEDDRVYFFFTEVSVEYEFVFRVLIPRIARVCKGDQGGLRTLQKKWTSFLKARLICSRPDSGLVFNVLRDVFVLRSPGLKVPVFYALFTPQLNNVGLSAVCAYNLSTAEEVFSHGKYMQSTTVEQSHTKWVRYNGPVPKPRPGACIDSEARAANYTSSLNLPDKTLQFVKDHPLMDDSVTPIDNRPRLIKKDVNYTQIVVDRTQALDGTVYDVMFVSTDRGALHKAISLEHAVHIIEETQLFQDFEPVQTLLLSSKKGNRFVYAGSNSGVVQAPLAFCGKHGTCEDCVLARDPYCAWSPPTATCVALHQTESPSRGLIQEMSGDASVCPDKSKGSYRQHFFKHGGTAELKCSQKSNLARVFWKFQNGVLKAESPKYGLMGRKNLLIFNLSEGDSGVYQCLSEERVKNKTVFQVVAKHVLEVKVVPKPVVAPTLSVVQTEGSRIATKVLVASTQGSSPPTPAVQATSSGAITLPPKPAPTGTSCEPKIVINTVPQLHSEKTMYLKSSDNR
Put plainly: FACS, blocking of biotinylated hSEMA4D ECD-His binding to 293F hPlexin B1 cells; Ab 0.00427 nM.

For experiment [4], the target named is T2, biotinylated hSEMA4D ECD-His (human). Put plainly: FACS, blocking of biotinylated hSEMA4D ECD-His binding to 293F hPlexin B1 cells; Ab 13.3 nM.
Experiment [5] concerns the target mouse SEMA4D, full length, on CHO-K1 cells (CHO-K1 mSEMA4D) (mouse) (UniProt O09126). Put plainly: FACS, CHO-K1 mSEMA4D cells; Ab 0.00427 nM.
Experiment [6] has as its target T2, biotinylated hSEMA4D ECD-His (human). Kind of experiment: FACS, blocking of biotinylated hSEMA4D ECD-His binding to 293F hPlexin B1 cells; Ab 0.534 nM.
Experiment [7] concerns the target T1, human SEMA4D, full length, on CHO-K1 cells (CHO-K1 hSEMA4D) (human). Kind of experiment: FACS, CHO-K1 hSEMA4D cells; Ab 0.534 nM.
Experiment [8] addresses monkey SEMA4D, full length, on CHO-K1 cells (CHO-K1 cSEMA4D) (monkey). Kind of experiment: FACS, CHO-K1 cSEMA4D cells; Ab 2.67 nM.
The target of experiment [9] is T2, biotinylated hSEMA4D ECD-His (human). Put plainly: FACS, blocking of biotinylated hSEMA4D ECD-His binding to 293F hPlexin B1 cells; Ab 0.107 nM.
In experiment [10] the target is T1, human SEMA4D, full length, on CHO-K1 cells (CHO-K1 hSEMA4D) (human). Kind of experiment: FACS, CHO-K1 hSEMA4D cells; Ab 0.0213 nM.
The target in experiment [11] is monkey SEMA4D, full length, on CHO-K1 cells (CHO-K1 cSEMA4D) (monkey). Put plainly: FACS, CHO-K1 cSEMA4D cells; Ab 0.107 nM.
Experiment [12] has as its target T2, biotinylated hSEMA4D ECD-His (human). Put plainly: FACS, blocking of biotinylated hSEMA4D ECD-His binding to 293F hPlexin B1 cells; Ab 66.7 nM.
The target of experiment [13] is mouse SEMA4D, full length, on CHO-K1 cells (CHO-K1 mSEMA4D) (mouse) (UniProt O09126). Put plainly: FACS, CHO-K1 mSEMA4D cells; Ab 0.534 nM.
Experiment [14] deals with T1, human SEMA4D, full length, on CHO-K1 cells (CHO-K1 hSEMA4D) (human). Kind of experiment: FACS, CHO-K1 hSEMA4D cells; Ab 0.00427 nM.
Experiment [15] addresses mouse SEMA4D, full length, on CHO-K1 cells (CHO-K1 mSEMA4D) (mouse) (UniProt O09126). Kind of experiment: FACS, CHO-K1 mSEMA4D cells; Ab 0.0213 nM.

For the substance Human IgG control (antibody), the MFI was found to be 38 in experiment [1]; 31.6 in experiment [2]; 23.7 in experiment [5]; 37.4 in experiment [7]; 33.3 in experiment [8]; 38.2 in [10]. The MFI came out at 31.6 in experiment [11], 23.7 in experiment [13], 37.4 in experiment [14] and 24.1 in experiment [15]. Moreover, the MFI (residual ligand binding) in experiment [3] was determined as 378; in experiment [4] it was 331; in experiment [6], 341; in [9], 364; in [12], 321.
In the case of Mouse IgG control (antibody), the MFI in experiment [1] was 36.1; in [2] it was 22.9; in experiment [5], 30.1; in [7], 36.5; in [8], 37.8; in experiment [10] it was 35.8. Further, the MFI in experiment [11] is 25.4; in experiment [13], 29.5; in experiment [14], 35.5; in experiment [15], 30.5. The MFI (residual ligand binding) in [3] was 486; in experiment [4], 474; in experiment [6], 472; in [9] it was 473; in experiment [12] it was 471.
